# Measured values published in PMC7350415.
# Legend:
# [1] = biological target: ovine CD27 (OaCD27), full length, C-terminally V5 tagged, on transfected HEK293 cells (Ovis aries); test: immunostaining of cells or tissue; HEK293 cells transfected with the V5-tagged receptor incubated with 10 μg of purified ligand for 15 min at 4 °C, then fixed; ligand detected with anti-ovine Fc antibody, receptor with anti-V5; confocal microscopy, pixel colocalisation in 25-40 cells
# [2] = biological target: ovine OX40 (OaOX40), full length, C-terminally V5 tagged, on transfected HEK293 cells (Ovis aries); test: as above
# [3] = biological target: ovine CD27 (OaCD27), full length, C-terminally V5 tagged, on transfected HEK293 cells (Ovis aries); test: immunostaining of cells or tissue; HEK293 cells transfected with the V5-tagged receptor incubated with conditioned media from adenovirus-infected cells for 15 min, then fixed; ligand detected with anti-Fc antibody, receptor with anti-V5; confocal microscopy, pixel colocalisation in 25-40 cells
# [4] = biological target: ovine OX40 (OaOX40), full length, C-terminally V5 tagged, on transfected HEK293 cells (Ovis aries); test: as above
substance,measurement,setting,value
"purified recombinant ovine CD70 (rOaCD70), baculovirus-expressed: ovine IgG1 Fc - isoleucine zipper - predicted extracellular domain of ovine CD70 (Fc fusion)",percentage of ligand sharing pixel localisation with its receptor,[1],72.8%
"purified recombinant ovine OX40L (rOaOX40L), baculovirus-expressed: ovine IgG1 Fc - isoleucine zipper - predicted extracellular domain of ovine OX40L (Fc fusion)",percentage of ligand sharing pixel localisation with its receptor,[2],59.3%
secreted rOaCD70 expressed from recombinant adenovirus Ad5-OaCD70 (same construct as the baculovirus protein) (Fc fusion),percentage of ligand signal colocalising with its receptor,[3],73.5%
secreted rOaOX40L expressed from recombinant adenovirus Ad5-OaOX40L (same construct as the baculovirus protein) (Fc fusion),percentage of ligand signal colocalising with its receptor,[4],60.4%
